{
  "source": "patent US7648964B2",
  "about": "“Use of lacritin in promoting ocular cell survival” (University of Virginia Patent Foundation, priority 2004, dated 2010)",
  "key": {"HSG cells": {"tested_on": "HSG cells", "test": "Calcium mobilization imaging in HSG cells (Fluo-4)", "assay_type": "cell-based, human", "procedure": "Cells were seeded at 1.4×10^4 HSG cells/mm^2 or 0.7×10^4 HSG cells/mm^2 on Matrigel-coated (100 μg/ml; BD Biosciences; San Diego Calif.) coverslips to respectively achieve 70-80% confluency after overnight or 48 h growth in 6-well plates containing phenol red-free Dulbecco's modified Eagle's medium with 10% fetal calf serum.\nOther cells were incubated (0.7×10^4HSG cells/mm^2 overnight plating) with 100 ng/ml pertussis toxin (Calbiochem; San Diego Calif.) in phenol red-free Dulbecco's modified Eagle's medium with 10% fetal calf serum; or vehicle alone). Cells were washed with calcium-free/phenol red-free Hanks basic salt solution, 20 mM N-2-hydroxyethylpiperazine-N′-2-ethane sulfonic acid and then incubated for 1 h at room temperature with the same solution containing fluo-4 μM at 4 μM (FluoroPure grade [Molecular Probes; Eugene Oreg.] dissolved in DMSO plus 20% Pluronic F-127). Cells were washed three times for 60 min at room temperature with calcium-free/phenol red-free Hanks basic salt solution with 5 mM Ca^2+ or 5 mM EGTA. Temperature was stabilized for 5 min at 37° C. coverslips were placed on the stage of a TE-200 epifluorescent microscope (Bio-Rad Radiance2100 confocal/multiphoton system using Plan Fluor 60×NA 1.4 Oil IR objective lens [Bio-Rad, Hercules Calif.] as part of the W. M. Keck Center for Cellular Imaging, University of Virginia), subjected to a 488 nm argon laser light source with emission at 528 nm. Baseline monitoring was followed by addition of lacritin or deletion fragments in phenol red-free Hanks basic salt solution."}, "RelA (p65)": {"tested_on": "RelA (p65)", "test": "Nuclear translocation of NF-kappaB subunit RelA (p65) in HSG cells", "assay_type": "cell-based, human", "excerpt": "Nuclear translocation of this transcription factor has also been observed after lacritin treatment. Very little RelA was initially observed in the nuclear compartment in resting HSG cells."}, "Leydig (TM4) cells": {"tested_on": "Leydig (TM4) cells", "test": "3H-thymidine uptake mitogenesis assay", "assay_type": "cell-based, mouse", "procedure": "(§1) For phosphotyrosine blotting and mitogenesis assays, cells in serum-containing media were seeded overnight in 24-well plates at a density of 0.5×10^5 cells/mm^2 corresponding to 20-30% confluency after cell attachment, incubated in serum-free media without supplements for 24 h (phosphotyrosine) or washed with serum-free media without supplements three times (mitogenesis) and incubated with lacritin (1-1000 nM), or positive controls EGF (1.6 nM) and 10% fetal bovine serum, or negative controls bovine serum albumin or no additive in serum-free media without supplements for the indicated times (phosphotyrosine) or 30 h (mitogenesis). […] After washing, bound antibodies were detected with peroxidase-labeled secondary antibody and ECL. […] Incorporation was stopped with ice-cold phosphate buffered saline and followed by addition of cold and then room temperature trichloracetic acid (10%) for 10 min each, washing of cells with phosphate buffered saline, solubilization with 1 N sodium hydroxide, neutralization with 1 N hydrochloric acid, addition of scintillation fluid and then quantitation in a scintillation counter. […] Seventy-two hours post-transfection, mitogenesis was assessed by co-addition of 10 […] lacritin and [^3H]-thymidine (2 mCi/ml) (Amersham, Piscataway N.J.) for 24 hrs. […]"}, "Sertoli (TM3) cells": {"tested_on": "Sertoli (TM3) cells", "test": "3H-thymidine uptake mitogenesis assay", "assay_type": "cell-based, mouse", "procedure": "as §1"}, "[1]": {"tested_on": "tyrosine phosphorylation of phosphoproteins in HSG cells", "test": "Phosphotyrosine blotting in HSG cells", "assay_type": "cell-based, human", "details": "within the first minute", "procedure": "as §1"}, "[2]": {"tested_on": "p42 and p44 MAPK (MAPK1 and MAPK3)", "test": "p42/p44 MAPK activation blot in HSG cells", "assay_type": "cell-based, human", "procedure": "as §1"}, "PLD": {"tested_on": "PLD", "test": "Endogenous PLD activity in HSG cells", "assay_type": "cell-based, human", "details": "bell-shaped activation curve", "procedure": "We measured endogenous PLD activity after lacritin addition and obtained a bell-shaped activation curve that was optimal at 10 nM lacritin, thus recapitulating the same dose dependency observed for mitogenesis, PKCα translocation and PKCα dephosphorylation. To determine whether PKCα was upstream of PLD in lacritin signaling, cells were transfected with D7 siRNA. […] Transiently hypophosphorylated perinuclear Golgi PKCα appears to have at least two roles. It complexes with PLCγ2 leading to IP3 generation and calcium mobilization. It also activates PLD1."}},
  "data": [
    {"molecule": "Cn1c2ccccc2c2c3c(c4c5ccccc5n(CCC#N)c4c21)CNC3=O", "note": "[Go 6976]", "values": [
      {"measurement": "effect on Ca++ signaling after lacritin stimulation", "setting": "HSG cells; Example 4", "result": "suppress Ca++ signaling"},
      {"measurement": "effect on carbachol-stimulated calcium mobilization", "setting": "HSG cells; U73122 1 μM, Go 6976 1 μM, even at 10 μM", "result": "unaffected"},
      {"measurement": "effect on lacritin-stimulated calcium mobilization", "setting": "HSG cells; preincubation: pertussis toxin 100 ng/ml, U73122 1 μM, Go 6976 1 μM, or siRNA", "result": "completely inhibited"}
    ]},
    {"molecule": "lacritin: recombinant human lacritin from E. coli; mature 119 residue fragment (SEQ ID NO:10) of native lacritin SEQ ID NO:4 (protein, listed as Homo sapiens) EDASSDSTGADPAQEAGTSKPNEEISGPAEPASPPETTTTAQETSAAAVQGTAKVTSSRQELNPLKSIVEKSILLTEQALAKAGKGMHGGVPGGKQFIENGSEFAQKLLKKFSLLKPWA", "values": [
      {"measurement": "nuclear RelA at 4 hours", "setting": "RelA (p65); 4 hours after initial contact with lacritin", "result": "high level of RelA was still observed"},
      {"measurement": "time of peak nuclear RelA", "setting": "RelA (p65); lacritin treatment", "result": "between 15 minutes to 1 hour"},
      {"measurement": "time to detectable RelA in nucleus", "setting": "RelA (p65); lacritin treatment", "result": 1, "unit": "min"},
      {"measurement": "mitogenesis", "setting": "Leydig (TM4) cells", "result": "not mitogenic"},
      {"measurement": "mitogenesis", "setting": "Sertoli (TM3) cells", "result": "not mitogenic"},
      {"measurement": "tyrosine phosphorylation of at least nine phosphoproteins", "setting": "[1]", "result": "transient tyrosine phosphorylation"},
      {"measurement": "activation of p42 and p44 MAPK", "setting": "[2]", "result": "no activation"},
      {"measurement": "calcium mobilization", "setting": "HSG cells; 10 nM", "result": "promotes calcium mobilization"},
      {"measurement": "calcium mobilization in EGTA-containing medium", "setting": "HSG cells; 10 nM lacritin", "result": "mobilized internal calcium"},
      {"measurement": "time to calcium mobilization after addition", "setting": "HSG cells; lacritin 10 nM", "result": "≤ 30", "unit": "s"},
      {"measurement": "concentration of optimal PLD activation", "setting": "PLD", "result": 10, "unit": "nM"}
    ]}
  ]
}
